Values quoted from earlier work, collected in publication PMC6442720.

Biological target: laminin 10 (Homo sapiens) (UniProt O15230)

- Kd: 7.9 nM
Substance: integrin α3β1 (from UniProt P26006)
